Results published in patent US20260274955A1 (JANUX THERAPEUTICS, published 2026).
No end group written: not given here.

Assays:
[1] = target: T1, anti-CD28 Fab (SEQ ID NOs: 202, 203); experiment: phage binding ELISA on captured Fab, competitor CD28 antigen
T1 construct: biotinylated and captured on neutravidin coated plates in the phage ELISA

[2] = target: T1, anti-CD28 Fab (SEQ ID NOs: 202, 203); experiment: phage binding ELISA on captured biotinylated Fab;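 further: clonal phage supernatants added to wells preincubated with CD28 antigen or blocking buffer only, bound phage detected by ELISA with horseradish-conjugated anti-M13 antibody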
[3] = target: anti-CD28 Fab (SEQ ID NOs: 202, 203); experiment: phage binding ELISA; biotinylated anti-CD28 Fab captured on neutravidin plate, clonal phage supernatant, anti-M13-HRP detection;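 further: before crude clonal phage supernatants were added, wells were preincubated with CD28 antigen in blocking buffer or with blocking buffer only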
[4] = target: anti-CD28 Fab (SEQ ID NOs: 202, 203); experiment: phage binding ELISA; captured anti-CD28 Fab pre-incubated with CD28 antigen as competitor, anti-M13-HRP detection
[5] = target: T2, anti-CD28 Fab (SEQ ID NOs: 202, 203); experiment: binding ELISA, peptide captured, anti-CD28 Fab titrated
T2 construct: biotinylated when captured in the phage ELISAs

Ab-1 [6] = target: T3, Ab-1; experiment: BLI (Octet), 200 nM peptide, 100 nM Ab-1;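 further: association and dissociation phases tracked in real time, with kinetics fitted to a 1:1 interaction model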
T3 construct: also called anti-CD28 scFv harbored in Ab-1

Ab-1 [7] = target: T3, Ab-1; experiment: binding ELISA, peptide captured, Ab-1 titrated
Ab-1 [8] = target: T3, Ab-1; experiment: BLI (Octet), peptide on sensor, Ab-1 titrated, 1:1 model
Ab-1 [9] = target: T3, Ab-1; experiment: competition ELISA, peptide titrated vs 1 nM Ab-1 binding plate-bound CD28

Row | Binder | Anti-CD28 Fab signal in the presence of CD28 [1] | Anti-CD28 Fab (SEQ ID NOs: 202, 203) signal [2] | Anti-CD28 Fab (SEQ ID NOs: 202, 203) signal [3] | Anti-CD28 Fab signal in the presence of CD28 [4] | further results
1 | TCAAGAAYPWPLCF [Phage-930] | 0.11 | 2.18 | – | – | –
2 | WCSAVFSYQWPVCL [Phage-1254] | – | – | 0.61 | 0.06 | –
3 | LCNAGATYSWPTCL [Phage-940] | 0.06 | 2.14 | – | – | –
4 | SCGGGFHYSWPLCF [Phage-1258] | – | – | 0.55 | 0.15 | –
5 | TCSAGATYTWSKCF [Phage-939] | 0.06 | 2.15 | – | – | –
6 | TCSAGATYTWPWCF [Phage-941] | 0.07 | 2.14 | – | – | –
7 | TCAAGATYLWPTCL (cysteine pairing not given here; also: biotinylated, site not given here) [Peptide-105] | – | – | – | – | EC50 [5]: 0.0205 µM
8 | PCSAGATYAWPYCL [Phage-1249] | – | – | 0.71 | 0.09 | –
9 | MCAAGFHYPWPACL [Phage-927] | 0.1 | 2.23 | – | – | –
10 | RDWCPRDLWVHCFA (cysteine pairing not given here; also: biotinylated, site not given here) [Peptide-3] | – | – | – | – | Octet signal (Ab-1 [6]): 1.22; t1/2 (Ab-1 [6]): 4.9 min; EC50 (Ab-1 [7]): 0.0146 µM; Kd (Ab-1 [8]): 0.0203 µM; t1/2 (Ab-1 [8]): 6.2 min; IC50 (Ab-1 [9]): 0.17 µM
11 | QDWCPRDLWVHCFA (cysteine pairing not given here; also: biotinylated, site not given here) [Peptide-6] | – | – | – | – | Octet signal (Ab-1 [6]): 1.12; t1/2 (Ab-1 [6]): 3.6 min; EC50 (Ab-1 [7]): 0.0257 µM; Kd (Ab-1 [8]): 0.0246 µM; t1/2 (Ab-1 [8]): 4.2 min; IC50 (Ab-1 [9]): 0.33 µM
12 | TCAAGATYAWPYCV [Phage-929] | 0.09 | 2.21 | – | – | –
13 | TCAAGAQLEWPWCF [Phage-1250] | – | – | 0.7 | 0.07 | –
14 | TCAAGATYDWPSCL [Phage-1247] | – | – | 0.71 | 0.08 | –
15 | MCSAGANWPWPLCF [Phage-932] | 0.07 | 2.18 | – | – | –
16 | SCSAGASYAWPMCI [Phage-1255] | – | – | 0.59 | 0.06 | –
17 | RCSAGFHYPLSLCL [Phage-933] | 0.06 | 2.18 | – | – | –
18 | TCSAGATYEWPRCL (cysteine pairing not given here; also: biotinylated, site not given here) [Peptide-101] | – | – | – | – | EC50 [5]: 0.0128 µM
19 | DCWWDSPYHWRVCL [Phage-1256] | – | – | 0.57 | 0.07 | –
20 | TCSAGASNKLSLCL [Phage-931] | 0.06 | 2.18 | – | – | –
21 | LCAAGATYPWPTCL (cysteine pairing not given here; also: biotinylated, site not given here) [Peptide-99] | – | – | – | – | EC50 [5]: 0.0258 µM
22 | LCAAGAHYPWPQCL [Phage-937] | 0.07 | 2.15 | – | – | –

Row | Binder | Anti-CD28 Fab signal in the presence of CD28 [1] | Anti-CD28 Fab (SEQ ID NOs: 202, 203) signal [2] | Anti-CD28 Fab (SEQ ID NOs: 202, 203) signal [3] | Anti-CD28 Fab signal in the presence of CD28 [4] | further results
23 | ICAAGAGWPWPWCL [Phage-1245] | – | – | 0.75 | 0.1 | –
24 | GCAAGAEYNWPTCL [Phage-1251] | – | – | 0.69 | 0.64 | –
25 | TCSAGAAYSWPACF (cysteine pairing not given here; also: biotinylated, site not given here) [Peptide-98] | – | – | – | – | EC50 [5]: 0.0243 µM
26 | ECSAGAMWGWPACF [Phage-1246] | – | – | 0.73 | 0.09 | –
27 | NCSAGATYPWPLCL [Phage-934] | 0.07 | 2.17 | – | – | –
28 | TCAAGAAYTWPHCF [Phage-1252] | – | – | 0.69 | 0.11 | –
29 | TCAAGANWEWPWCF [Phage-928] | 0.08 | 2.22 | – | – | –
30 | SCSAGAHYPWPQCF (cysteine pairing not given here; also: biotinylated, site not given here) [Peptide-100] | – | – | – | – | EC50 [5]: 0.019 µM
31 | TCAAGAHYPWPACL (cysteine pairing not given here; also: biotinylated, site not given here) [Peptide-106] | – | – | – | – | EC50 [5]: 0.0042 µM
32 | TCAAGAVWQWPTCF [Phage-1248] | – | – | 0.71 | 0.06 | –
33 | SCAAGAMYSWPTCL [Phage-935] | 0.08 | 2.16 | – | – | –
34 | TCSAGAHYPWPICL (cysteine pairing not given here; also: biotinylated, site not given here) [Peptide-102] | – | – | – | – | EC50 [5]: 0.0106 µM
35 | TCSAGATYKWPMCF [Phage-1243] | – | – | 0.77 | 0.07 | –
36 | NCSAGAQWPWPICL [Phage-936] | 0.08 | 2.15 | – | – | –
37 | TCSAGATWAWPLCF (cysteine pairing not given here; also: biotinylated, site not given here) [Peptide-104] | – | – | – | – | EC50 [5]: 0.0156 µM
38 | TCAAGAHWPWPTCF [Phage-938] | 0.07 | 2.15 | – | – | –
39 | GCAAGFHYTLSTCL [Phage-1259] | – | – | 0.42 | 0.05 | –
40 | SCAAGAGYGWPQCL [Phage-1257] | – | – | 0.55 | 0.13 | –
41 | TCSAGAQWEWPACL [Phage-1253] | – | – | 0.67 | 0.08 | –
42 | TCSAGATYGWPACF [Phage-1244] | – | – | 0.76 | 0.07 | –
43 | SCSAGAAYYWPWCL (cysteine pairing not given here; also: biotinylated, site not given here) [Peptide-103] | – | – | – | – | EC50 [5]: 0.112 µM
